Experimental findings from EP4242225A1 (Consejo Superior De Investigaciones Científicas, dated 2023) are described below.

B1: hcAb 1.29 (Fc fusion)
heavy: QVQLVESGGGSVQAGGSLRLSCAASGYTINTDAVAWFRQAPGKGDERVAVIYTGSGNTNYADSVKGRFTISQDNAKNTVYLQMNSLKPEDTALYYCASGYYGASGYDFNNWGQGTQVTVSS
B2: hcAb 1.26 (Fc fusion)
heavy: QVQLVESGGGLVQAGGSLRLSCAATGYTWSSVCMGWFRQAPGKEREGVAGIPSGRNRPYYADSVKGRFTISQDNAKNAVFLLMNSLKPEDTAIYYCAPCSAPHDPEYNYWGQGTQVTVSS
B3: hcAb 2.15 (Fc fusion)
heavy: QVQLVESGGGSVQAGGSLKLSCAASGYASWARKCIGWFRQAPGQEREGVAAIFDFDGSTYYSDSVKGRFTISGDNAKNTVSLQMNSLLPKDTAVYYCTVAFGTCDNWYRGRGDYWGQGTQVTVSS
B4: hcAb 2.1 (Fc fusion)
heavy: QVQLVESGGGSVQAGGSLRLSCAAFGATISSAHMGWFRQAPGKEREGVAFRYTDGSSTYYTTSVRGRFTISQDNAKNTVYLQMNSLKPEDTAMYYCASNPSWGRLVGGQYNNWGQGTQITVSS
notes: also called 2.1Fc
B5: hcAb 2.20 (Fc fusion)
heavy: QVQLVESGGGSVQAGGSLRLSCAASGYTYNNYYMGWFRQAPGKEREGVAAINSDGLDTYVADSVKGRFTISRDNAKDTVHLQMNSLKPEDTAIYSCATGRTVYYSGYDFRLSVDDYWGQGTQVTVSS
notes: also called 2.20Fc; 2.20 hcAb
B6: hcAb 1.10 (Fc fusion)
heavy: QVQLVESGGGSVQAGGSLRLSCAASGYTYSTCRKGWYRQAPGKERELVASITADGATYYLDSVKGRLTISQDNAKNTVYLQMNSLKPEDTAVYYCAASVKDFTCTFNSWGQGTQVTVSS
B7: Nb 1.29 (VHH)
VHH: B1 heavy
B8: Nb 2.1 (VHH)
VHH: B4 heavy
B9: Nb 2.20 (VHH)
VHH: B5 heavy
B10: Nb 2.11 (VHH)
VHH: QVQLVESGGGSVQAGGSLRLSCAASGDASNRKCVSWFRRAPGKEREGVALIFPVGSSTAYADSVKGRFTISQDSAKDTVYLQMNNLKPEDSGTYYCAAVSWGGRCNLETQTVTFWGQGTQVTVSS
B11: Nb 1.26 (VHH)
VHH: B2 heavy
B12: Nb 1.16 (VHH)
VHH: QVQLVESGGGSVQAGGSLRLSCAASGNTSKRKCVGWFRRAPGKEREGVTLIYTVGGSTVYADSVKGRFTISQDNAKDTVYLQMNSLKPEDSAMYYCAAESWGRQCNLETHRFTFWGQGTQVTVSS
B13: hcAb 2.11 (Fc fusion)
heavy: B10 VHH
notes: also called 2.11Fc
B14: hcAb 1.16 (Fc fusion)
heavy: B12 VHH
notes: also called 1.16Fc
B15: bispecific hcAb 1.29-1.10 (bispecific antibody)
heavy: QVQLVESGGGSVQAGGSLRLSCAASGYTINTDAVAWFRQAPGKGDERVAVIYTGSGNTNYADSVKGRFTISQDNAKNTVYLQMNSLKPEDTALYYCASGYYGASGYDFNNWGQGTQVTVSSGGGGSGGGGSGGGGSQVQLVESGGGSVQAGGSLRLSCAASGYTYSTCRKGWYRQAPGKERELVASITADGATYYLDSVKGRLTISQDNAKNTVYLQMNSLKPEDTAVYYCAASVKDFTCTFNSWGQGTQVTVSS

The first assay deals with T1, monomeric RBD of SARS-CoV-2 S (WA1) (SARS-CoV-2, UniProt P0DTC2 332-534).
T1 construct: domain: RBD
The assay can be described thus: ELISA, hcAb dilutions on plate-bound monomeric RBD. A general note: An ELISA detects its analyte on a solid surface through an enzyme-linked reagent.
By EC50 is commonly meant the midpoint of the concentration-response curve. Molecule B1 displayed an EC50 of 35 nM.

B2 registered a concentration giving a half-maximal response (EC50) of 1 nM. This EC50 lies about 35-fold lower than the previous one.

The next assay concerns the target S protein of SARS-CoV-2 on pseudotyped retroviral particles (Spp) (SARS-CoV-2, UniProt P0DTC2 14-1273). The assay can be described thus: cell-based or functional assay.
Consider B1, for which the “inhibition of Spp entry into Vero-E6 cells (luciferase, 48 h.p.i.)” value (shortened to “inhibition … (luciferase, 48 h.p.i.)”) is not below 90%.

As for B3, the “inhibition … (luciferase, 48 h.p.i.)” value is more than 90%.

Consider B4, for which the “inhibition … (luciferase, 48 h.p.i.)” value was more than 90%.

For B5, the “inhibition … (luciferase, 48 h.p.i.)” value was not below 90%.

As to B2, the “inhibition … (luciferase, 48 h.p.i.)” value is not below 90%.

B6: the “inhibition … (luciferase, 48 h.p.i.)” value was more than 90%.

The next assay addresses T2, RBD-FH, monomeric RBD (332-534) with a FLAG peptide and an 8xHis-tag at the C-terminus (SARS-CoV-2, UniProt P0DTC2 332-534).
Test: not given
What is called Kd is the concentration at which binding is half-saturated. Higher therefore signals lower affinity. Usually koff stands for the first-order rate constant of dissociation. A high value points to a short-lived complex. In general, kon refers to a measure of how fast the partners come together. Read a low kon as slow association. Turning to B7, the dissociation constant (Kd) was 12.9 nM, the koff is 0.00614 s⁻¹ and the association rate constant (kon) worked out at 476000 M⁻¹ s⁻¹.

B8 returned a Kd of 1.74 nM, a dissociation rate constant (koff) of 0.00233 s⁻¹ and a kon of 1.34e+06 M⁻¹ s⁻¹.

Molecule B9 returned a Kd of 0.77 nM, a koff of 0.00101 s⁻¹ and a kon of 1.3e+06 M⁻¹ s⁻¹.

For B10, binding was put at a Kd of 1.72 nM, the koff was found to be 0.0054 s⁻¹ and the on-rate (kon) was determined as 3.15e+06 M⁻¹ s⁻¹.

Regarding B11, the affinity, expressed as Kd, was 0.26 nM; the off-rate constant (koff) was 0.000624 s⁻¹; the kon was 2.44e+06 M⁻¹ s⁻¹.

Turning to B12, the equilibrium dissociation constant (Kd) is 3.59 nM, the koff worked out at 0.00705 s⁻¹ and the on-rate constant (kon) came out at 1.96e+06 M⁻¹ s⁻¹.

The target in a further assay is T2, RBD-FH, monomeric RBD (332-534) with a ….
Test: not given
This is another data set of the same source.
In the case of B1, the Kd was determined as 0.63 nM, the koff is 0.000221 s⁻¹ and the on-rate (kon) was found to be 353000 M⁻¹ s⁻¹.

In the case of B4, the affinity, expressed as Kd, was 0.36 nM; the koff turned out to be 0.000281 s⁻¹; the kon stood at 771000 M⁻¹ s⁻¹.

B5 showed an equilibrium dissociation constant (Kd) of 0.21 nM, an off-rate constant (koff) of 0.000233 s⁻¹ and an on-rate (kon) of 1.09e+06 M⁻¹ s⁻¹.

Take B13: the dissociation constant Kd turned out to be 0.16 nM, the dissociation rate constant (koff) amounted to 0.0003 s⁻¹ and the kon worked out at 1.82e+06 M⁻¹ s⁻¹.

B2 returned an equilibrium dissociation constant (Kd) of 0.08 nM, an off-rate constant (koff) of 0.000148 s⁻¹ and a kon of 1.76e+06 M⁻¹ s⁻¹.

In turn, B14 yielded a Kd of 0.25 nM, an off-rate (koff) of 0.000438 s⁻¹ and a kon of 1.72e+06 M⁻¹ s⁻¹.

The target of another assay is T3, RBD-Fc, Wuhan strain (WA1) (SARS-CoV-2; human, UniProt P0DTC2 332-534).
T3 construct: range 332-534; also called WA1 RBD; WA1 RBD-Fc
The assay can be described thus: ELISA, biotin-labeled bispecific hcAb on plate-bound RBD-Fc.
On to B15, for which the binding result is “binds”.
